{"source": "patent US20220273720A1", "biological_target": "CD3 on non-edited CD3+ T cells of a human donor (human) (UniProt P07766)", "sequence (P07766 23-207, chain 1 of 3)": "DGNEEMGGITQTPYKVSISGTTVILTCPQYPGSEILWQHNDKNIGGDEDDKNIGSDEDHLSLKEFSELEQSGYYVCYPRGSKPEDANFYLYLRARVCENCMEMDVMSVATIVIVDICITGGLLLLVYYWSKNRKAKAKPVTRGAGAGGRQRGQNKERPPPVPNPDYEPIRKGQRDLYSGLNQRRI", "sequence (P09693 23-182, chain 2 of 3, further chain)": "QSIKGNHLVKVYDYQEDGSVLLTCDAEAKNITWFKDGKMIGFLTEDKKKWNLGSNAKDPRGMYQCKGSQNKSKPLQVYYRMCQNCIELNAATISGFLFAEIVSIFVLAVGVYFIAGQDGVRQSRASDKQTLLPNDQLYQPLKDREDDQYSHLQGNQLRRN", "sequence (P04234 22-171, chain 3 of 3, further chain)": "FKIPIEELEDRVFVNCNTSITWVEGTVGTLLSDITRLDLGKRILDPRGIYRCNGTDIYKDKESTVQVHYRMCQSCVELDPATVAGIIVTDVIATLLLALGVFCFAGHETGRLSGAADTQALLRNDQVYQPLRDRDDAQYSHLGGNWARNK", "experiment": "cell-based or functional assay"}
{"substance": "foralumab biosimilar (Creative Biolabs) (antibody)", "values": [{"measurement": "percent killing in a complement-dependent cytotoxicity (CDC) assay on non-edited CD3+ T cells, 24 h, 30% human serum, antibody at 30-4000 ng/ml", "value": 65, "unit": "%"}]}
